Laboratory results taken from the Human Domainome abundance scans (Beltran et al. 2025).
± gives the uncertainty stated by the source.

B1: COUP transcription factor 1, residues 83 to 159; numbered along this chain, P10589 (parent)
chain: HIECVVCGDKSSGKHYGQFTCEGCKSFFKRSVRRNLTYTCRANRNCPIDQHHRNQCQYCRLKKCLKVGMRREAVQRG

Variants of: B1
Assay: abundance fitness (aPCA) (normalised: wild type 0, dead -1); higher = more abundant; growth selection in yeast, the domain comes from the species named
Conditions: Homo sapiens

In order of falling abundance fitness:
1. HIECVVCGDKSSGKHYGQFTCEGCKSFFKRSVRRNLTYTCRANRNCPIDQHHRNQCYYCRLKKCLKVGMRREAVQRG [Q57Y]  0.296 ± 0.21
2. HIECVVCGDKSSGKHYGQFTCEGCKSFFKRSVRRNLTYTCPANRNCPIDQHHRNQCQYCRLKKCLKVGMRREAVQRG [R41P]  0.265 ± 0.055
3. HIECVVCGDKSSGKHYGQFTCEGCKSFFKRSVRRNLTYTCYANRNCPIDQHHRNQCQYCRLKKCLKVGMRREAVQRG [R41Y]  0.088 ± 0.15
4. HIECVVCGDKSSGKHYGQFTCEGCCSFFKRSVRRNLTYTCRANRNCPIDQHHRNQCQYCRLKKCLKVGMRREAVQRG [K25C]  0.087 ± 0.074
5. HIECVVCGDKSSGKHCGQFTCEGCKSFFKRSVRRNLTYTCRANRNCPIDQHHRNQCQYCRLKKCLKVGMRREAVQRG [Y16C]  0.074 ± 0.12
6. HIECVVCGDKSSGKHYGQFTCEGCKSFFKRSVRRNLTYTCRANRNCPIDQHHRNQCQYCRLKKCLKVGMRREQVQRG [A73Q]  0.063 ± 0.046
7. HIECVVCGDKSSGKHYGQFTCEGCKSFFKRSVRRNLTYTCRANRNCPIDQHHRNQCQYCRLKKCEKVGMRREAVQRG [L65E]  0.06 ± 0.04
8. HIECVVCLDKSSGKHYGQFTCEGCKSFFKRSVRRNLTYTCRANRNCPIDQHHRNQCQYCRLKKCLKVGMRREAVQRG [G8L]  0.042 ± 0.076
9. HIECVVCGDKSSGKHYGQFTCEQCKSFFKRSVRRNLTYTCRANRNCPIDQHHRNQCQYCRLKKCLKVGMRREAVQRG [G23Q]  0.031 ± 0.12
10. HIECVVCGDKSSGKHYGQFTCEGCKSFFKRSVRRNLTYTCRANRNCPIDQHHRNQCQYCRLKKCLKVGMRREAEQRG [V74E]  -0.004 ± 0.042
11. HIECVVCGDKSSGKHYGQFTCEGCKSFFKRSVRRNLTYTCRANRNCPIDQHHRNQCQYCCLKKCLKVGMRREAVQRG [R60C]  -0.007 ± 0.052
12. HIECVVCGDKSSGKHYGQFTCETCKSFFKRSVRRNLTYTCRANRNCPIDQHHRNQCQYCRLKKCLKVGMRREAVQRG [G23T]  -0.009 ± 0.21
13. HIECVVCGDKSSGKHYGQFTCEGCKSFFKRSVRRNLTYTCRANRNCPISQHHRNQCQYCRLKKCLKVGMRREAVQRG [D49S]  -0.044 ± 0.044
14. HIECVVCGDKSSGKHYGQDTCEGCKSFFKRSVRRNLTYTCRANRNCPIDQHHRNQCQYCRLKKCLKVGMRREAVQRG [F19D]  -0.052 ± 0.12
15. HIECVVCGDKSSGKHYGQFWCEGCKSFFKRSVRRNLTYTCRANRNCPIDQHHRNQCQYCRLKKCLKVGMRREAVQRG [T20W]  -0.058 ± 0.051
16. HIECVVCGDKSSGKHYGQFTCEGCKSFFKRSVRRNLTYTCRANRNCPIDQHHRNQCSYCRLKKCLKVGMRREAVQRG [Q57S]  -0.059 ± 0.06
17. HIECVVCGDKSSGKHYGQFTCEGCKSFFKRSVRRNLTYTCRANRNCPIDYHHRNQCQYCRLKKCLKVGMRREAVQRG [Q50Y]  -0.066 ± 0.1
18. HIECVVCGDKSSGKHYGQFTCEGCKSFFKRSVRRNLTYTCRANRNCPIWQHHRNQCQYCRLKKCLKVGMRREAVQRG [D49W]  -0.13 ± 0.069
19. HIECVVCGDKSSGKHMGQFTCEGCKSFFKRSVRRNLTYTCRANRNCPIDQHHRNQCQYCRLKKCLKVGMRREAVQRG [Y16M]  -0.154 ± 0.11
20. HIECVVCGDKSSGKHYGQFYCEGCKSFFKRSVRRNLTYTCRANRNCPIDQHHRNQCQYCRLKKCLKVGMRREAVQRG [T20Y]  -0.165 ± 0.11
21. HIECVVCGDKSSGKHYGQFTCEGCKSFFKRSVRRNLTYTCRANRNCPIDQHHINQCQYCRLKKCLKVGMRREAVQRG [R53I]  -0.169 ± 0.17
22. HIECVVCGDKSSGKHYGQFTCEGCKSFFLRSVRRNLTYTCRANRNCPIDQHHRNQCQYCRLKKCLKVGMRREAVQRG [K29L]  -0.186 ± 0.054
23. HIECVVCGLKSSGKHYGQFTCEGCKSFFKRSVRRNLTYTCRANRNCPIDQHHRNQCQYCRLKKCLKVGMRREAVQRG [D9L]  -0.234 ± 0.084
24. HIECVVCGDKSSGKHYGQFTCEGCKSFFKRSVRRNLTYTCRANRNCPIDQHHRCQCQYCRLKKCLKVGMRREAVQRG [N54C]  -0.314 ± 0.11
25. HIECVVCGDKSSGKHYGQFTCYGCKSFFKRSVRRNLTYTCRANRNCPIDQHHRNQCQYCRLKKCLKVGMRREAVQRG [E22Y]  -0.342 ± 0.19
26. HIECVVCGDKSSGKHYGQFTCEGCKSFFKRSVRRNLTYTCRANRNCPIDQHHRNQCQYCRQKKCLKVGMRREAVQRG [L61Q]  -0.346 ± 0.07
27. HIECVVCGDKSSGKHYGQFTCEGCKSFFKRSVRRNLTYTCRANRNCPIDQHHRNQCQYCRLKTCLKVGMRREAVQRG [K63T]  -0.356 ± 0.057
28. HIECVVCGDKSSGKHYGQFTCEGCKSFFKRSVRRNLTYTCRANRNCPIDQHHRNQCQYCRLKKCSKVGMRREAVQRG [L65S]  -0.472 ± 0.059
29. HIECVVCGDKSSGKHYGQFTCEGCKSFFKRSVRRNLTYTCRANRNCPIDQHHRNQCQYCELKKCLKVGMRREAVQRG [R60E]  -0.503 ± 0.06
30. HIECVVCGDKSSGKHYGQFTCEGCKSFFKRSVRRNLTYTCRANRNCPIDQHHRNQCQYCRLKKCLKVLMRREAVQRG [G68L]  -0.572 ± 0.064
31. HIECVVCGDKSSGKHYGQFTCEGCKSFFKRSVRRNLTYTCRANRNCPIDQHHRNQCQPCRLKKCLKVGMRREAVQRG [Y58P]  -0.587 ± 0.08
32. HIECVVCGDKSSGKHYGQFTCEGCKSFFKRSVRRNLTYTCRANRNCPIDQHHRNQCQYCRPKKCLKVGMRREAVQRG [L61P]  -0.65 ± 0.088
33. HIECVVCGDKSSGKHYGQFTCEGCKSFFKRSVRRNLTYTWRANRNCPIDQHHRNQCQYCRLKKCLKVGMRREAVQRG [C40W]  -0.712 ± 0.1
34. HIECVVCGDKSSGKHYGQFKCEGCKSFFKRSVRRNLTYTCRANRNCPIDQHHRNQCQYCRLKKCLKVGMRREAVQRG [T20K]  -0.868 ± 0.19
35. HIECVVCGDKSSGKHYGQFTMEGCKSFFKRSVRRNLTYTCRANRNCPIDQHHRNQCQYCRLKKCLKVGMRREAVQRG [C21M]  -1.01 ± 0.22
